For 94 variants, protein stability index results are on record in the supplement of paper PMC10567573.

The chains are these.
B1: SETD8 (parent)
chain: KKAQGKTQQNRKLTDFYPVRRSSR
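Note: lentivirally expressed fusions sorted by FACS into six bins by GFP to DsRed ratio, PSI derived from sequencing read proportions per bin multiplied by bin number.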

The variants in this data set derive from B1. Put plainly: protein stability index of a GFP-peptide fusion (GPS, HEK-293T) (PSI 1-6); higher = more stable. The conditions noted are these: c terminus: a fixed tail appended.
As to KKAQGKTQDNRKLTDFYPVRRSSR [Q9D], the protein stability index was 2.83.

For the variant KKAQGKDQQNRKLTDFYPVRRSSR [T7D], the protein stability index amounted to 3.32.

In the case of KKAQGKWQQNRKLTDFYPVRRSSR [T7W], the protein stability index was determined as 2.88.

With KKAQGKMQQNRKLTDFYPVRRSSR [T7M], the protein stability index amounted to 2.41.

Regarding KKAQGKSQQNRKLTDFYPVRRSSR [T7S], the protein stability index turned out to be 2.26.

For the variant KKAQGKFQQNRKLTDFYPVRRSSR [T7F], the protein stability index was found to be 1.95.

In the case of KKAQGKEQQNRKLTDFYPVRRSSR [T7E], the protein stability index came to 2.9.

On to KKAQGKNQQNRKLTDFYPVRRSSR [T7N], for which the protein stability index is 3.33.

As for KKAQGKLQQNRKLTDFYPVRRSSR [T7L], the protein stability index worked out at 3.08.

As for KKAQGKRQQNRKLTDFYPVRRSSR [T7R], the protein stability index is 3.38.

Regarding KKAQGKQQQNRKLTDFYPVRRSSR [T7Q], the protein stability index stood at 2.66.

In the case of KKAQGKHQQNRKLTDFYPVRRSSR [T7H], the protein stability index was 2.88.

Regarding KKAQGKTQQNRGLTDFYPVRRSSR [K12G], the protein stability index came out at 2.76.

As for KKAQGKTQQNRRLTDFYPVRRSSR [K12R], the protein stability index was found to be 1.86.

On to KKAQGKTQQNRMLTDFYPVRRSSR [K12M], for which the protein stability index amounted to 2.55.

With KKAQGKTQQNRVLTDFYPVRRSSR [K12V], the protein stability index turned out to be 2.32.

As for KKAQGKTQQNRELTDFYPVRRSSR [K12E], the protein stability index was 3.35.

With KKAQGKTQQNRHLTDFYPVRRSSR [K12H], the protein stability index stood at 1.53.

As for KKAQGKTQQNRNLTDFYPVRRSSR [K12N], the protein stability index amounted to 2.81.

For KKAQGKTQQNRYLTDFYPVRRSSR [K12Y], the protein stability index is 3.

For KKAQGKTQQNRPLTDFYPVRRSSR [K12P], the protein stability index was determined as 2.97.

With KKAQGKTQQNRTLTDFYPVRRSSR [K12T], the protein stability index amounted to 2.4.

In the case of KKAQGKTQQNRDLTDFYPVRRSSR [K12D], the protein stability index turned out to be 2.98.

KKAQGKTQQNRSLTDFYPVRRSSR [K12S]: the protein stability index was found to be 2.64.

Consider KKAQGKTQQNRFLTDFYPVRRSSR [K12F], for which the protein stability index turned out to be 1.93.

In the case of KKAQGKTQQNRLLTDFYPVRRSSR [K12L], the protein stability index stood at 3.41.

On to KKAQGKTQQNNKLTDFYPVRRSSR [R11N], for which the protein stability index was 2.86.

For the variant KKAQGKTQQNVKLTDFYPVRRSSR [R11V], the protein stability index worked out at 1.86.

For KKAQGKTQQNLKLTDFYPVRRSSR [R11L], the protein stability index amounted to 2.43.

Take KKAQGKTQQNQKLTDFYPVRRSSR [R11Q]: the protein stability index turned out to be 2.71.

For the variant KKAQGKTQQNSKLTDFYPVRRSSR [R11S], the protein stability index was found to be 2.85.

Consider KKAQGKTQQNTKLTDFYPVRRSSR [R11T], for which the protein stability index was 2.19.

For the variant KKAQGKTQQNPKLTDFYPVRRSSR [R11P], the protein stability index was 2.61.

Consider KKAQGKTQQNHKLTDFYPVRRSSR [R11H], for which the protein stability index was determined as 3.68.

As to KKAQGKTQQNYKLTDFYPVRRSSR [R11Y], the protein stability index was 2.94.

Take KKAQGKTQQNIKLTDFYPVRRSSR [R11I]: the protein stability index was found to be 2.45.

For the variant KKAQGKTQQNWKLTDFYPVRRSSR [R11W], the protein stability index was 2.76.

As for KKAQGKTQQNDKLTDFYPVRRSSR [R11D], the protein stability index worked out at 3.45.

For KKAQGKTQQNEKLTDFYPVRRSSR [R11E], the protein stability index was determined as 2.15.

For the variant KKAQGKTQQNGKLTDFYPVRRSSR [R11G], the protein stability index is 1.5.

As to KKAQGKTQQNAKLTDFYPVRRSSR [R11A], the protein stability index was 1.6.

Consider KKAQGKTQQNFKLTDFYPVRRSSR [R11F], for which the protein stability index turned out to be 2.91.

With KKAQGKTQQGRKLTDFYPVRRSSR [N10G], the protein stability index worked out at 1.42.

Turning to KKAQGKTQQERKLTDFYPVRRSSR [N10E], the protein stability index was determined as 2.67.

On to KKAQGKTQQRRKLTDFYPVRRSSR [N10R], for which the protein stability index is 2.74.

As to KKAQGKTQQSRKLTDFYPVRRSSR [N10S], the protein stability index amounted to 2.35.

With KKAQGKTQQCRKLTDFYPVRRSSR [N10C], the protein stability index was 3.63.

For the variant KKAQGKTQQARKLTDFYPVRRSSR [N10A], the protein stability index came to 1.64.

For KKAQGKTQQTRKLTDFYPVRRSSR [N10T], the protein stability index was 2.17.

For the variant KKAQGKTQQHRKLTDFYPVRRSSR [N10H], the protein stability index was found to be 3.49.

For KKAQGKTQQYRKLTDFYPVRRSSR [N10Y], the protein stability index amounted to 3.04.

As for KKAQGKTQQDRKLTDFYPVRRSSR [N10D], the protein stability index stood at 4.38.

Take KKAQGKTQQMRKLTDFYPVRRSSR [N10M]: the protein stability index stood at 2.39.

Consider KKAQGKTQQIRKLTDFYPVRRSSR [N10I], for which the protein stability index amounted to 3.4.

With KKAQGKTQQPRKLTDFYPVRRSSR [N10P], the protein stability index came out at 2.77.

As to KKAQGKTQQLRKLTDFYPVRRSSR [N10L], the protein stability index stood at 2.39.

As to KKAQGKTQQNRKLVDFYPVRRSSR [T14V], the protein stability index was determined as 3.67.

On to KKAQGKTQQNRKLPDFYPVRRSSR [T14P], for which the protein stability index came to 2.4.

Regarding KKAQGKTQQNRKLQDFYPVRRSSR [T14Q], the protein stability index worked out at 3.33.

Regarding KKAQGKTQQNRKLLDFYPVRRSSR [T14L], the protein stability index is 3.72.

Consider KKAQGKTQQNRKLGDFYPVRRSSR [T14G], for which the protein stability index is 2.68.

Take KKAQGKTQQNRKLIDFYPVRRSSR [T14I]: the protein stability index was found to be 2.63.

With KKAQGKTQQNRKLYDFYPVRRSSR [T14Y], the protein stability index came to 2.65.

In the case of KKAQGKTQQNRKLRDFYPVRRSSR [T14R], the protein stability index was 3.11.

For the variant KKAQGKTQQNRKLSDFYPVRRSSR [T14S], the protein stability index stood at 2.72.

Consider KKAQGKTQQNRKLWDFYPVRRSSR [T14W], for which the protein stability index turned out to be 3.4.

On to KKAQGKTQQNRKLHDFYPVRRSSR [T14H], for which the protein stability index came to 3.1.

For the variant KKAQGKTQQNRKLMDFYPVRRSSR [T14M], the protein stability index is 1.79.

On to KKAQGKTQQNRKLNDFYPVRRSSR [T14N], for which the protein stability index was found to be 3.49.

On to KKAQGKTQQNRKLDDFYPVRRSSR [T14D], for which the protein stability index was 4.21.

As to KKAQGKTQQNRKLADFYPVRRSSR [T14A], the protein stability index is 3.99.

Take KKAQGKTQQNRKLEDFYPVRRSSR [T14E]: the protein stability index is 4.32.

On to KKAQGKTQQNRKLTDFYAVRRSSR [P18A], for which the protein stability index worked out at 3.16.

KKAQGKTQQNRKLTDFYDVRRSSR [P18D]: the protein stability index was 3.38.

For the variant KKAQGKTQQNRKLTDFYFVRRSSR [P18F], the protein stability index amounted to 2.61.

On to KKAQGKTQQNRKLTDFYCVRRSSR [P18C], for which the protein stability index stood at 2.47.

As to KKAQGKTQQNRKLTDFYIVRRSSR [P18I], the protein stability index is 2.66.

As to KKAQGKTQQNRKGTDFYPVRRSSR [L13G], the protein stability index was 3.42.

For KKAQGKTQQNRKATDFYPVRRSSR [L13A], the protein stability index is 2.67.

Regarding KKAQGKTQQNRKHTDFYPVRRSSR [L13H], the protein stability index was 3.83.

Consider KKAQGKTQQNRKQTDFYPVRRSSR [L13Q], for which the protein stability index came out at 3.79.

Turning to KKAQGKTQQNRKVTDFYPVRRSSR [L13V], the protein stability index is 2.79.

For KKAQGKTQQNRKFTDFYPVRRSSR [L13F], the protein stability index stood at 3.52.

Turning to KKAQGKTQQNRKCTDFYPVRRSSR [L13C], the protein stability index is 4.07.

Turning to KKAQGKTQQNRKTTDFYPVRRSSR [L13T], the protein stability index is 3.51.

As for KKAQGKTQQNRKRTDFYPVRRSSR [L13R], the protein stability index worked out at 5.53.

For KKAQGKTQQNRKNTDFYPVRRSSR [L13N], the protein stability index came to 3.26.

On to KKAQGKTQQNRKETDFYPVRRSSR [L13E], for which the protein stability index was 2.77.

As to KKAQGKTQQNRKPTDFYPVRRSSR [L13P], the protein stability index was 3.64.

As to KKAQGKTQQNRKYTDFYPVRRSSR [L13Y], the protein stability index stood at 3.47.

KKAQGKTQQNRKDTDFYPVRRSSR [L13D]: the protein stability index amounted to 4.69.

Regarding KKAQGKTQQNRKSTDFYPVRRSSR [L13S], the protein stability index is 2.79.

With KKAQGKTQQNRKKTDFYPVRRSSR [L13K], the protein stability index was 5.04.

As to KKAQGKTQQNRKWTDFYPVRRSSR [L13W], the protein stability index turned out to be 4.33.
